Reference: patent US20260250651, “CAS12 PROTEINS AND USES THEREOF” (GUANGZHOU REFORGENE MEDICINE CO., LTD., published 2026)

T1: Cas12i-135 (N295R,N260R,G705R,L475R)
T1 chain: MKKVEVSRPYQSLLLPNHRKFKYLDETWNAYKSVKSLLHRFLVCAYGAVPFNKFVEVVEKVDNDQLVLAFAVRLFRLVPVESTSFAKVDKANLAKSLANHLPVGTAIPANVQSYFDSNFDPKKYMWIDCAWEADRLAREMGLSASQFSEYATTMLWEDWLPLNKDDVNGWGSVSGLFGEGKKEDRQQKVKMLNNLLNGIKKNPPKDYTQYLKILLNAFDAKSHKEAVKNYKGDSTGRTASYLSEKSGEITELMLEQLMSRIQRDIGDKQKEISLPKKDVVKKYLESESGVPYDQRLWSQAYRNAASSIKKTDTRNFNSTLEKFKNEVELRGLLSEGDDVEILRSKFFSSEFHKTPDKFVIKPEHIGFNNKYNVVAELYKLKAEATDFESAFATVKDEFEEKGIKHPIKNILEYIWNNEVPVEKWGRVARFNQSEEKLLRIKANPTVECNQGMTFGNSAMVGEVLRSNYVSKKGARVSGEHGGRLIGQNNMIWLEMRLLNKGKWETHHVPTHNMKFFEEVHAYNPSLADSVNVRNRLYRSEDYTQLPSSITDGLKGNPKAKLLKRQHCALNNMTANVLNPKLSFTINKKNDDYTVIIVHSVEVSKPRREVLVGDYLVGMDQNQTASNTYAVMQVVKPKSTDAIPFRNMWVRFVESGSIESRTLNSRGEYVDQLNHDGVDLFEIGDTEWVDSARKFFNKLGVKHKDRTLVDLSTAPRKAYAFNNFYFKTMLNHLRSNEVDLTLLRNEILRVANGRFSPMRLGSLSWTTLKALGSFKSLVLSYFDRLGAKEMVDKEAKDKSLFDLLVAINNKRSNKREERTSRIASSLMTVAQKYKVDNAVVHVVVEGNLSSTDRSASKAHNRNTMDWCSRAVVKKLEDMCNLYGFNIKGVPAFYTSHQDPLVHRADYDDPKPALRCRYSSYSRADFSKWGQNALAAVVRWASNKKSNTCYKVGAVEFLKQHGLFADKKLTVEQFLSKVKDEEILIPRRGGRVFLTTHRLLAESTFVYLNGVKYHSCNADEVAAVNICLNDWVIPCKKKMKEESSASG

T2: Cas12i-69 (N295R,N260R,G705R)
T2 chain: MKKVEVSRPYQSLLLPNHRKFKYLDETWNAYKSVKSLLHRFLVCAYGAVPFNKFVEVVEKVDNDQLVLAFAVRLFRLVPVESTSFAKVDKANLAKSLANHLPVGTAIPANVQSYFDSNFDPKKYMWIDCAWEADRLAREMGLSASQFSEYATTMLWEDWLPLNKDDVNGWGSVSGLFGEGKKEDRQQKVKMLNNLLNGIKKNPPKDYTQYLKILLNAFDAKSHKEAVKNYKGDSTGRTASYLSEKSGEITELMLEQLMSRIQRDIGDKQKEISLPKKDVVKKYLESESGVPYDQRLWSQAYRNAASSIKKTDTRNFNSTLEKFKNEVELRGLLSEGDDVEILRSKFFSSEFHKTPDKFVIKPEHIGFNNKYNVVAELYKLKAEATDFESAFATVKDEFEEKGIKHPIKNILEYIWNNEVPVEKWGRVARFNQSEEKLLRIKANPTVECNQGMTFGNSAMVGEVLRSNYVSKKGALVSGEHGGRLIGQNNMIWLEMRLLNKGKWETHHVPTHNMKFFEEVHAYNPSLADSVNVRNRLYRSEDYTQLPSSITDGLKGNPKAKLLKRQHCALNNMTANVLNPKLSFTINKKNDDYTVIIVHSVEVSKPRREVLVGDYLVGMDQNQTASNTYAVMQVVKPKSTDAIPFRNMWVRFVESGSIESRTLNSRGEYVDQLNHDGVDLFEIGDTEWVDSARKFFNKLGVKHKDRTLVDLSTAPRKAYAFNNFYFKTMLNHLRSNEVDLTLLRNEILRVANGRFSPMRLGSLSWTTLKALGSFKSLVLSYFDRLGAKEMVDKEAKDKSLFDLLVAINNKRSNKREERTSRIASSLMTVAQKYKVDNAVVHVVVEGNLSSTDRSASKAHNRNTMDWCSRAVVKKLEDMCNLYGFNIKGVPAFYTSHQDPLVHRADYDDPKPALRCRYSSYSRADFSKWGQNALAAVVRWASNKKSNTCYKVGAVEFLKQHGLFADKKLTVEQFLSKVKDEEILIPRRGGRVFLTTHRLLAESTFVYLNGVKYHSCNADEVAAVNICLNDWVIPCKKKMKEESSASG


What was measured:
Cas12i-135 = biological target: T1, Cas12i-135; experiment: cell_activity; 293T indels
Protocol: (§1) Plating: The 293T cell line was plated when the confluence reached 70-80%, and the number of cells seeded in a 24-well plate was 5*10\hat{ }5 cells/well.
(§2) Transfection: After 12-14 hours of plating, transfection was performed. 100 μl of Opti-MEM, 1.5 μl of PEI (Yisheng Bio, Polyethylenimine Linear (PEI) MW25000), 250 ng of the mutant clone plasmid from Example 2, and 250 ng of gRNA plasmid for targeting endogenous genes were added to each well of a 24-well plate. The mixture was incubated at room temperature for 20 minutes and then added to 293T cells for transfection. After transfection overnight, the medium was replaced with fresh medium and cultured for the next period.
(§3) DNA extraction, PCR amplification, and Sanger sequencing: After culturing for 72 hours, cells were washed with PBS, and then 100 μl of cell lysis buffer (Viagen, DirectPCR® Lysis Reagent (Cell)) was added for lysis to obtain a lysate containing genomic DNA. The genomic DNA was amplified in the region near the target sequence, and the PCR product was sent to a sequencing company for Sanger sequencing.

Cas12i-69 = biological target: T2, Cas12i-69; experiment: cell_activity; 293T indels; editing >3%
Protocol: as §1, §2, §3

| Binder | relative indel editing efficiency (Cas12i-135) | relative indel editing efficiency (Cas12i-69) |
| --- | --- | --- |
| gRNA-TTR ; TTR target (ssRNA ; dsDNA) RNA: AGAGAAUGUGUGCAUAGUCACACCAGUAAGAUUUGGUGUCUAU DNA 1: CAGTAAGATTTGGTGTCTAT DNA 2: ATAGACACCAAATCTTACTG | 1.73 fold of Cas12i-69 |  |
| gRNA-HBG ; HBG target (ssRNA ; dsDNA) RNA: AGAGAAUGUGUGCAUAGUCACACACAAGGCAAACUUGACCAAU DNA 1: ACAAGGCAAACTTGACCAAT DNA 2: ATTGGTCAAGTTTGCCTTGT |  | 1.27 fold of wild type |
